Common to all, as to test: EMSA; EMSA: 25 mM Tris-HCl pH 7.5, 1 mM DTT, 5 mM MgCl2, 100 mM NaCl, 20 min at 37 C; 10 nM substrate; protein 22-167 nM (RPA 5-40 nM); 7.5% native PAGE, 0.5x TBE, 4
In one series the target is hSSB1 (Homo sapiens, UniProt Q9BQ15 1-211). The note with it: protein: recombinant, tags: His6 (2BT).
In the next series the target is INTS3 (UniProt Q68E01 1-1043). The note with it: protein: recombinant; tags: His6-TEV (438B); label: 5' Cy3; single strand.
Another series has as its target RPA (UniProt P27694;P15927;P35244 1-616;1-270;1-121). Conditions: protein: recombinant; copies: 1;1;1; label: 5' Cy3; single strand.

Sequence of hSSB1 (Q9BQ15 whole entry): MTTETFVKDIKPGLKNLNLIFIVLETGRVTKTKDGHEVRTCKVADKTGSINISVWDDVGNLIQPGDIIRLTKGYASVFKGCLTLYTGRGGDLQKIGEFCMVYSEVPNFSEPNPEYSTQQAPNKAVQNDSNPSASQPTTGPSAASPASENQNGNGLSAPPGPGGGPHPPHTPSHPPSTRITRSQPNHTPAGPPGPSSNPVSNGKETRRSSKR
Sequence of RPA (P27694 whole entry, chain 1 of 3): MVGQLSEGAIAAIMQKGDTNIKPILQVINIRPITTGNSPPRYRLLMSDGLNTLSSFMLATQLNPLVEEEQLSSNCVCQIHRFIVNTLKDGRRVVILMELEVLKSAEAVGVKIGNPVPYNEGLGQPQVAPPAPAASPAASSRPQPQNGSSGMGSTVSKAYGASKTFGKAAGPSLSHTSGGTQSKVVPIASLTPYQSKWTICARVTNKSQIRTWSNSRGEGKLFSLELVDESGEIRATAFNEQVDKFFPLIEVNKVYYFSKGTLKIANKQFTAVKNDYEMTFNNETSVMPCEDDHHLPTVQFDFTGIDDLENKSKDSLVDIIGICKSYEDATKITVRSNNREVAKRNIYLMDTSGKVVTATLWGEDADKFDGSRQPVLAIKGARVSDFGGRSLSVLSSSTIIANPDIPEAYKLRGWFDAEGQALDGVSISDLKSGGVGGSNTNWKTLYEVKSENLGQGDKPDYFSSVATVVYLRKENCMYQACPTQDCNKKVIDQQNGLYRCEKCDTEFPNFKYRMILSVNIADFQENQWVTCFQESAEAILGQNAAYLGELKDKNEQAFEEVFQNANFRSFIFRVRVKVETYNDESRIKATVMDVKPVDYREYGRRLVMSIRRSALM
Sequence of RPA (P15927 whole entry, chain 2 of 3): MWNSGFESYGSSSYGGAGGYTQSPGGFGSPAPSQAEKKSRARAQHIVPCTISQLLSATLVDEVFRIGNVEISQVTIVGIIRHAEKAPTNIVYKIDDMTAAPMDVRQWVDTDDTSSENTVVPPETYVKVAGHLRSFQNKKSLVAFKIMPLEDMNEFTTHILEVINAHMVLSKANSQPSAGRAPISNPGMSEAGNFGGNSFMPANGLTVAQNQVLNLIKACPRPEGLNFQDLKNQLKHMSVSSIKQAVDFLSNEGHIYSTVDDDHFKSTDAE
Sequence of RPA (P35244 whole entry, chain 3 of 3): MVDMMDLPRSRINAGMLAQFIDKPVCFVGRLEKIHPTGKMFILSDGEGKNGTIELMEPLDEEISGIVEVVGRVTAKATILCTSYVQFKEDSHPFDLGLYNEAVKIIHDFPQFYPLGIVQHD
Sequence of INTS3 (Q68E01 whole entry): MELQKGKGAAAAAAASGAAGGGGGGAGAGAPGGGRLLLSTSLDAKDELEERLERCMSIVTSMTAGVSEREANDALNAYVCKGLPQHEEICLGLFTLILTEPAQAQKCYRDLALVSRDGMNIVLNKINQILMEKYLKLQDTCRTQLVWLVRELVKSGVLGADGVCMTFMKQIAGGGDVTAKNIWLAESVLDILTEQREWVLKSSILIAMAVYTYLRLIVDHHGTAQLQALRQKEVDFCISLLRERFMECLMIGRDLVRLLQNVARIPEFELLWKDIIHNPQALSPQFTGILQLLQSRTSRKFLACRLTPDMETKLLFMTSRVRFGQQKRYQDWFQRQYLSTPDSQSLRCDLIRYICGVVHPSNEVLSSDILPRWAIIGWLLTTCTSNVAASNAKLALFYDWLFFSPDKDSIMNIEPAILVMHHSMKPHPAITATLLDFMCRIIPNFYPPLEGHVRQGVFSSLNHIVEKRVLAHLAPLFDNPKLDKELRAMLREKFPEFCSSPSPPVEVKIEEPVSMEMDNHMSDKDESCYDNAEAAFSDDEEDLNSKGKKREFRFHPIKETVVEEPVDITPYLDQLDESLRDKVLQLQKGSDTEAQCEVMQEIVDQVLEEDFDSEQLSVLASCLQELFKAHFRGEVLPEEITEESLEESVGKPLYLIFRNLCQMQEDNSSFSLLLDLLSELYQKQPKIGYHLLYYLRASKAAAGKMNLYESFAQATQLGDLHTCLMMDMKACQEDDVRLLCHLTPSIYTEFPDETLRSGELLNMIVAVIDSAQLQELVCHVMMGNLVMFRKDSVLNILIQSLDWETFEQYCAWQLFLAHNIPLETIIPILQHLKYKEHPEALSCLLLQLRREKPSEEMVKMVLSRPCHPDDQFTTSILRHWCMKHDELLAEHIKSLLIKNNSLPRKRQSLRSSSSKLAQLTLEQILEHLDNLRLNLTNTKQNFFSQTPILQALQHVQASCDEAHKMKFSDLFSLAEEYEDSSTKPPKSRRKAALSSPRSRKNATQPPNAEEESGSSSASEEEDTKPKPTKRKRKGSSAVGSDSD

B1: 61-mer ssDNA (ssDNA)
DNA: GACGCTGCCGAATTCTACCAGTGCCTTGCTAGGACATCTTTGCCCACCTGCAGGTTCACCC
On to B1, for which the binding result was “binds” with hSSB1 (label: 5' Cy3, single strand); “no binding” with INTS3; “binds” with RPA.

B2: bubble DNA (dsDNA)
DNA 1: B1 DNA
DNA 2: GGGTGAACCTGCAGGTGGGCGGCTGCTCATCGTAGGTTAGTTGGTAGAATTCGGCAGCGTC
As to B2, in the series with hSSB1 (label: 5' Cy3 on strand 1, blunt, 21-nt central bubble), the binding result was “no binding”.

B3: R-loop (mixed)
DNA 1: B1 DNA
DNA 2: B2 DNA 2
RNA: AAAGAUGUCCUAGCAAGGCAC
For the molecule B3, the binding result in the series with hSSB1 (label: 5' Cy3 on strand 1, 21-nt RNA paired to strand 1 in a 21-nt bubble, 20-bp flanking duplexes) is on record as “binds”.
Turning to GTGCCTTGCTAGGACATCTTT (ssDNA) [21-mer ssDNA (pRMS630)], the binding result with hSSB1 (label: 5' Cy3, single strand) is recorded as “no binding”; with RPA it was “binds”.

Values taken from publication PMC7617797, “The phosphorylated trimeric SOSS1 complex and RNA polymerase II trigger liquid-liquid phase separation at double-strand breaks”.
